Measured values as given in patent US6410329.

Key:
Assay in all cases: cell_activity
[1] = target: T1, VirD2-VirD1 translational fusion (p35SD2D1) (Agrobacterium tumefaciens) (UniProt P06668)
T1 sequence: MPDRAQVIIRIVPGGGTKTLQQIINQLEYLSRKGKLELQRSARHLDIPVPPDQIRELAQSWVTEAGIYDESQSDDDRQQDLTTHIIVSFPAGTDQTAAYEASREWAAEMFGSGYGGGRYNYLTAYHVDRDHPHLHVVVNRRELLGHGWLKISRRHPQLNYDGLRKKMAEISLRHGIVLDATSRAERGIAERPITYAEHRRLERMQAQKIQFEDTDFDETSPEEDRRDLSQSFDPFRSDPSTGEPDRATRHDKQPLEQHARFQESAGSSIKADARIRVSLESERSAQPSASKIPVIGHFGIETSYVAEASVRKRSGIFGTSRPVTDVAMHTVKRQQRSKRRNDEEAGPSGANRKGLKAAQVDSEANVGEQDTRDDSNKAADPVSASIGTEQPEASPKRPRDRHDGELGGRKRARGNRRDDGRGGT

[2] = target: T2, VirD1-VirD2 translational fusion (p35SD1D2) (Agrobacterium tumefaciens) (UniProt P06668)
T2 sequence: T1 sequence

[3] = tested on: VirD1 (Agrobacterium tumefaciens); details: VirD1 alone
[4] = maize, pwBarRBLuc geminivirus vector

| Sequence | activity (% of control luciferase) ([1]; maize, 1 ug + 4 ug) | activity (% of control luciferase) ([1]; tobacco, 0.5 ug + 2 ug) | activity (% of control luciferase) ([2]; maize, 1 ug + 4 ug) | activity (% of control luciferase) ([2]; tobacco, 0.5 ug + 2 ug) | activity (% of control luciferase) ([3]; maize) | activity (% of control luciferase) ([3]; tobacco) | activity (% of control luciferase) [1, 4] | activity (% of control luciferase) [2, 4] | activity (Luc/GUS ratio) ([3]; maize, target alone 15.0) |
| --- | --- | --- | --- | --- | --- | --- | --- | --- | --- |
| ATCCGGCAGGATATATACCGTTGTAATTCTGCA (double strand) [T-DNA right border duplex, pRB(+)Luc] | 2.6 | 5 | 2.4 | 5.4 | 105 | 72 |  |  |  |
| ATCCGGCAGGATATATACCGTTGTAATTCTGCA (double strand) [T-DNA right border reversed, pRB(-)Luc] |  |  |  |  |  | 95 |  |  |  |
| ATCCGGCAGGATATATACCGTTGTAATTCTGCA (double strand) [right border in WDV replicon pwi35SRBLuc] |  |  |  |  |  |  | 3.6 | 6 | 8.1 |
